Our source for the Km, kcat and kcat/Km values is article PMC3267840.

Experiment in all cases: purified protein
For data set [1], the system named is Oc1ccccc1O. The class given is biochemical, Tribolium castaneum. To be noted: pH 5.5, 0.1 M sodium acetate (pH optimum not determined).
Data set [2] concerns CC(=O)NCCc1ccc(O)c(O)c1. Format: biochemical, Tribolium castaneum. To be noted: pH 5.5, 0.1 M sodium acetate.
Data set [3] has as its system NCCc1ccc(O)c(O)c1. Format: biochemical, Tribolium castaneum. To be noted: pH 6.0, 0.1 M Mes.
Data set [4] deals with NCCC(=O)NCCc1ccc(O)c(O)c1. Format: biochemical, Tribolium castaneum. The following applies: pH 5.5, 0.1 M sodium acetate.
For data set [5], the system named is Oc1ccc(O)cc1. The class given is biochemical, Tribolium castaneum. The following applies: pH 5.5, 0.1 M sodium acetate (pH optimum not determined).
Substrate in data set [6]: NCCc1ccc(O)c(O)c1
Format: biochemical, Tribolium castaneum. The following applies: pH 5.5, 0.1 M sodium acetate.

Substrate in data set [7]: Oc1ccccc1O
The class given is biochemical, Tribolium castaneum. To be noted: pH 5.5, 0.1 M sodium acetate (pH optimum not determined). This is another data set of the same source.

Substrate in data set [8]: Oc1ccc(O)cc1
Format: biochemical, Tribolium castaneum. To be noted: pH 5.5, 0.1 M sodium acetate (pH optimum not determined). The source holds these as a separate data set.

Substrate in data set [9]: CC(=O)NCCc1ccc(O)c(O)c1
The class given is biochemical, Tribolium castaneum. The following applies: pH 5.5, 0.1 M sodium acetate. The source holds these as a separate data set.

Substrate in data set [10]: NCCC(=O)NCCc1ccc(O)c(O)c1
The class given is biochemical, Tribolium castaneum. To be noted: pH 5.5, 0.1 M sodium acetate. The source holds these as a separate data set.

Substrate in data set [11]: NCCc1ccc(O)c(O)c1
Format: biochemical, Anopheles gambiae.

Substrate in data set [12]: Oc1ccc(O)cc1
Format: biochemical, Anopheles gambiae. To be noted: pH 5.5, 0.1 M sodium acetate (pH optimum not determined).

Substrate in data set [13]: CC(=O)NCCc1ccc(O)c(O)c1
The class given is biochemical, Anopheles gambiae.

Substrate in data set [14]: NCCC(=O)NCCc1ccc(O)c(O)c1
The class given is biochemical, Anopheles gambiae. The following applies: pH 5.5, 0.1 M sodium acetate.

Substrate in data set [15]: N[C@@H](Cc1ccc(O)c(O)c1)C(=O)O
The class given is biochemical, Manduca sexta. The following applies: pH 6.0, 0.1 M Mes, 0.1 % cetylpyridinium as activator.

Substrate in data set [16]: Oc1ccccc1O
The class given is biochemical, Anopheles gambiae. To be noted: pH 5.5, 0.1 M sodium acetate (pH optimum not determined).

One may read the Km as the concentration of substrate that gives half-maximal velocity. A word on the kcat: it is the maximal rate divided by the concentration of active sites. By kcat/Km is commonly meant the second-order rate constant that governs catalysis at low substrate concentration. In the case of “TcLac2B (Tribolium castaneum; G182D/T93A)”, the Michaelis-Menten constant (Km) in [1] is 12000 µM; in data set [2], 600 µM; in data set [3], 2000 µM; in [4], 4000 µM; in [5] it was 2000 µM. The kcat in data set [1] turned out to be 10.8 s⁻¹; in data set [2] it was 5.5 s⁻¹; in data set [3], 7.5 s⁻¹; in data set [4], 18.8 s⁻¹; in data set [5], 9.2 s⁻¹. The kcat/Km was found to be 900 M⁻¹ s⁻¹ in data set [1]; 9170 M⁻¹ s⁻¹ in [2]; 3750 M⁻¹ s⁻¹ in data set [3]; 4700 M⁻¹ s⁻¹ in data set [4]; 4600 M⁻¹ s⁻¹ in data set [5].

B1: TcLac2A (Tribolium castaneum) (protein)
chain: VRAPGAKKKVGPIDQSAAAASWHDFDNSDFFQSEHAVIQTHPSIGGGPRFSSGGGRKAWKHLDFRNSAAAELLKNPSLSSPDECARACREGEPPRICYYHFTLELYTVLGAACQVCTPNATNTVWSHCQCVLADGVERGILTANRMIPGPSIQVCEGDKVVIDVENHIEGNEVTLHWHGVWQRGSQYYDGVPFVTQCPIQQGNTFRYQWIAGNAGTHFWHAHTGLQKMDGLYGSVVIRQPPAKDPNSHLYDYDLTTHVMLLSDWMHEDATERFPGRLAVNTGQDPESLLINGKGQFRDPNTGFMTNTPLEVFTITPGRRYRFRMINSFASVCPAQLTIQGHDLTLIATDGEPVHPVRVNTIISFSGERYDFVINADQTPGAYWIQLRGLGECGIRRVQQLGILRYAKGPYQPSQAPPTYDYGIPQGVVLNPLDARCNEIRPDAICVSQLKNALSIDKGILREKPDVKIFLPFRFHIYTPEDLFAPNTYNRHLVAPNGDHVISLIDEISYMAPPAPLISQYDDIDPQQFCNGDNRPADCQQNCMCTHKVDIPLNAIVEIVLVDEVQQPNLSHPFHLHGYAFNVIGIGRSPDQNVKKINLKHALDLDRQGLLHRQFNLPPAKDTIAVPNNGYVVLRLRANNPGFWLFHCHFLFHIVIGMNLVLQVGTHADLPPVPPNFPTCGDHVPEINSNPNLV
Turning to B1, the Km in [6] was 800 µM; in [7], 6000 µM; in [8] it was 1000 µM; in data set [9], 700 µM; in data set [10] it was 1000 µM. The kcat in data set [6] came out at 0.683 s⁻¹; in [7], 4.03 s⁻¹; in data set [8], 3.55 s⁻¹; in [9], 2.45 s⁻¹; in data set [10], 2.75 s⁻¹. Further, the catalytic efficiency (kcat/Km) in [6] was 850 M⁻¹ s⁻¹; in data set [7], 667 M⁻¹ s⁻¹; in data set [8], 3550 M⁻¹ s⁻¹; in [9] it was 3500 M⁻¹ s⁻¹; in data set [10] it was 2750 M⁻¹ s⁻¹.

B2: AgMCO2A (Anopheles gambiae) (protein)
chain: VRVQQHTSRRFKDESFGHDQTPAGSWWSSHLTEPPSNFYQATHGLLQTHPSVPSLKPVAGAPAAPGPSALPLSSRKSPTVSSAAALNSGFPSIANPNPRSPFRHLDFSTSATAELRRNPSLSAPDECARACREGEPPRICYYHFTVEYYTVLGAACQVCTPNATNTVWSHCQCVLADGVERGILTVNRMIPGPSIQVCENDRVVIDVENHMEGMELTIHWHGIWQRGTQYYDGVPFVTQCPIQQGNTFRYQWTGNAGTHFWHAHTGLQKLDGLYGSIVVRQPPSRDPNSHLYDFDLTTHIMLVSDWLHEDAAERYPGRLAVNTGQDPESLLINGKGQFRDPNTGFMTNTPLEIFTITPGRRYRFRMINAFASVCPAQVTIEGHALTVIATDGEPVHPAQVNTIISFSGERYDFVITADQPVGAYWIQLRGLGECGIKRAQQLAILRYARGPYQPASPPPTYDVGLPQGVVMNPLDAQCNVQRDDAICVSQLKNAKEIDRALLQDKPDVKIFLPFRFYLYRPEELFQPNTYNRFLVAPTGDHVISLIDEISYLSAPAPLLSQYDDINPEQFCNGDNRPADCGANCMCTHKVDIPLNAIVEVVLVDEVQQPNLSHPFHLHGYAYNVVGIGRSPDSNVKKINLKHALDLDRRGLLHRQYNLPPLKDTIAVPNNGYVVLRFRADNPGFWLFHCHFLFHIVIGMNLILQVGTHADLPPVPPNFPTCGDHLPPIN
Consider B2, for which the Michaelis-Menten constant (Km) was 500 µM in data set [11] (pH 7.5, 0.1 M sodium phosphate); 2000 µM in data set [12]; 300 µM in data set [13] (pH 5.5, 0.1 M sodium acetate); 1000 µM in data set [14]. Moreover, the catalytic constant (kcat) came out at 0.8 s⁻¹ in data set [11] (pH 7.5, 0.1 M sodium phosphate); 3.82 s⁻¹ in data set [12]; 1.53 s⁻¹ in data set [13] (pH 5.5, 0.1 M sodium acetate); 3.65 s⁻¹ in data set [14]. In addition, the kcat/Km worked out at 1600 M⁻¹ s⁻¹ in [11] (pH 7.5, 0.1 M sodium phosphate); 1900 M⁻¹ s⁻¹ in data set [12]; 5120 M⁻¹ s⁻¹ in data set [13] (pH 5.5, 0.1 M sodium acetate); 3650 M⁻¹ s⁻¹ in data set [14].

B3: phenoloxidase (prophenoloxidase from M. sexta hemolymph) (Manduca sexta) (protein)
chain 1: TDAKNNLLYFFDRPNEPCFMQKGEDKVVFEIPDHYYPDKYKSLSNTLSNRFGNEATKRIPIRNITLPNLEVPMQLPYNDQFSLFVPKHRTMAAKLIDIFMGMRDVEDLQSVCSYCQLRINPYMFNYCLSVAILHRPDTKGLSIPTFAETFPDKFMDSKVFLRAREVSNVVISGSRMPVNVPINYTANTTEPEQRVAYFREDIGINLHHWHWHLVYPFDSADRSIVNKDRRGELFYYMHQQIIGRYNVERMCNGLPQVKPFSDFSAPIEEGYFPKLDSQVASRTWPPRFAGSVFRNLDRTVDQVKIDVRKLFTWRDQFLEAIQKMAIKMPNGRELPLDEVTGIDMLGNLMESSIISPNRGYYGDLHNMGHVFAAYTHDPDHRHLEQFGVMGDSATAMRDPFFYRWHRFVDDVFNIYKEKLTPYTNERLDFPGVRVSSVGIEGARPNTLRTLWQQSTVELGRGLDFTPRGSVLARFTHLQHDEFQYVIEVNNTTGGNLMGTVRIFMAPKVDDNGQPMSFNKQRRLMIELDKFSQALRPGTNTIRRRSVDSSVTIPYERTFRNQSERPGDPGTAGAAEFDFCGCGWPHHMLIPKGTAQGYPVVLFVMISNWNNDRIEQDLVGSCNDAASYCGIRDRKYPDKQAMGYPFDRKMANDAATLSDFLRPNMAVRDCSIQFSDTTVERGQQG
chain 2: ADIFDSFELLYDRPGEPMINTKGEDKVLFELTEQFLTPEYANNGLELNNRFGDEEEVSRKIILKNLDKIPEFPKAKQLPNDADFSLFLPSHQEMANEVIDVLMSVTENQLQELLSTCVYARINLNPQLFNYCYTVAIMHRRDTGKVRVQNYAEIFPAKFLDSQVFTQAREAAAVIPKTIPRTPIIIPRDYTATDLEEEHRLAYWREDLGINLHHWHWHLVYPFSASDEKIVAKDRRGELFFYMHQQIIARYNCERLCNSLKRVKKFSDWREPIPEAYYPKLDSLTSARGWPPRQAGMRWQDLKRPVDGLNVTIDDMERYRRNIEEAIATGNVILPDKSTKKLDIDMLGNMMEASVLSPNRDLYGSIHNNMHSFSAYMHDPEHRYLESFGVIADEATTMRDPFFYRVHAWVDDIFQSFKEAPHNVRPYSRSQLENPGVQVTSVAVESAGGQQNVLNTFWMQSDVNLSKGLDFSDRGPVYARFTHLNHRPFRYVIKANNTASARRTTVRIFIAPKTDERNLPWALSDQRKMFIEMDRFVVPLSAGENTITRQSTESSLTIPFEQTFRDLSIQGSDPRRSELAAFNYCGCGWPQHMLVPKGTVGGVAYQLFVMLSNYELDKIEQPDGRELSCVEASMFCGLKDKKYPDARPMGYPFDRPSNSATNIEDFSAMSNMGLQDIVIKLSDVTEPNPRNPPA
On to B3, for which, in data set [15], the Km was determined as 2000 µM and the kcat came out at 6.02 s⁻¹.

B4: AgMCO2B (Anopheles gambiae) (protein)
chain: VRVQQHTSRRFKDESFGHDQTPAGSWWSSHLTEPPSNFYQATHGLLQTHPSVPSLKPVAGAPAAPGPSALPLSSRKSPTVSSAAALNSGFPSIANPNPRSPFRHLDFSTSATAELRRNPSLSAPDECARACREGEPPRICYYHFTVEYYTVLGAACQVCTPNATNTVWSHCQCVLADGVERGILTVNRMIPGPSIQVCENDRVVIDVENHMEGMELTIHWHGIWQRGTQYYDGVPFVTQCPIQQGNTFRYQWTGNAGTHFWHAHTGLQKLDGLYGSIVVRQPPSRDPNSHLYDFDLTTHIMLVSDWLHEDAAERYPGRLAVNTGQDPESLLINGKGQFRDPNTGFMTNTPLEIFTITPGRRYRFRMINAFASVCPAQVTIEGHALTVIATDGEPVHPVQVNTIISFSGERYDFVITADQPVGAYWIQLRGLGECGIKRAQQLAILRYARGPYQPASPPPTYDVGLPQGVVMNPLDAVCNVPRPDAVCVSNLRNAKKADKAVLSERPDVKIFLPFRFYFYRVEELFTPNTYNKFLVAPGGDHLISLIDEISYVSPPSPMLSQINDIPPEQFCNGDNRPPDCGPNCMCTHKVDIPLNAIVEVVLVDEVQQENLSHPFHLHGHAFHVIGMGRSPDSTVKKINLRHTLDLDRRGLLNRQFNLPPLKDTIAVPNNGYVVLRFRADNPGYWLFHCHFQFHIVIGMNLVVHIGTHADLPPVPPNFPRCGNHIPPIKYN
On to B4, for which the Km was determined as 300 µM in data set [11] (pH 5.5, 0.1 M sodium acetate); 4000 µM in data set [16]; 800 µM in data set [12]; 700 µM in data set [13] (pH 5.0, 0.1 M sodium acetate); 2000 µM in data set [14]. In addition, the turnover number (kcat) in data set [11] (pH 5.5, 0.1 M sodium acetate) was 1.05 s⁻¹; in data set [16] it was 2.98 s⁻¹; in data set [12] it was 4.2 s⁻¹; in data set [13] (pH 5.0, 0.1 M sodium acetate), 2.12 s⁻¹; in data set [14] it was 6.35 s⁻¹. The specificity constant (kcat/Km) in data set [11] (pH 5.5, 0.1 M sodium acetate) turned out to be 3500 M⁻¹ s⁻¹; in data set [16], 750 M⁻¹ s⁻¹; in data set [12], 5250 M⁻¹ s⁻¹; in [13] (pH 5.0, 0.1 M sodium acetate), 3020 M⁻¹ s⁻¹; in data set [14], 3170 M⁻¹ s⁻¹.
